Patent publication US20200200749A1

Key:
[1] = target: BDBV GP on virus (BDBV (Bundibugyo ebolavirus)); assay: cell-based or functional assay
[2] = target: BDBV GP (recombinant, full-length extracellular domain) (BDBV (Bundibugyo ebolavirus)); assay: ELISA, GP coated on plate, mAb serially diluted

| Binder | IC50, neutralization of BDBV [1] | EC50 [2] |
| --- | --- | --- |
| BDBV223 (antibody, V domains shown) VH: QVQLQQWGAGLLKPSETLSLTCAVYGGSFTTTYWNWIRQPPGKGLEWIGEVNYSGNANYNPSLKGRVAISVDTSKNQFSLRLNSVTAADTAIYYCTSRIRSHIAYSWKGDVWGKGTTVTVSS VL: EIVMTQSPGTLSLSPGERATLSCRASQSVPRNYIGWFQQKPGQAPRLLIYGASSRAAGFPDRFSGSGSGTDFTLTITRLEPEDFAMYYCHQYDRLPYTFGQGTKLEIK | 0.005 µg/mL |  |
| EBOV62 (antibody, V domains shown) VH: EVQLVESGGGLVQPGGSLRLSCAASGFTFSSYWMSWVRQAPGKGLEWVANIKQDGSAKYYVDSVKGRFTISRDNAKNSLYLQMNSLRAEDTAVYYCARDGLLGISDLLYPIYYFDYWGQGTLVTVSS VL: DIVMTQSPSSLSASVGDRVTITCRASQNIGSYLNWYQQKPGKAPNLLMYAASSLQSGVPSRFSGSGSGTDFTLTITSLQPEDFATYYCQQSYSIPRTFGQGTQLEIK |  | 508 µg/mL |
